Article PMC9352680, “A comprehensive thermodynamic model for RNA binding by the Saccharomyces cerevisiae Pumilio protein PUF4”

target: T1, PUF4 RNA-binding domain (Saccharomyces cerevisiae, UniProt P25339 537-888); experiment: Mg; RNA-MaP; 20 mM Na-HEPES pH 7.4, 30 mM KOAc, 0.75 mM MgCl2, 0.1% Tween-20, 5% glycerol, 0.1 mg/mL BSA, 2 mM DTT; 25 C; 0.0125-409.6 nM protein; conditions: tags: N-His6-TEV cleaved; C-SNAP kept, Cy3B-labelled; label: tethered on chip by stalled RNA polymerase
T1 sequence: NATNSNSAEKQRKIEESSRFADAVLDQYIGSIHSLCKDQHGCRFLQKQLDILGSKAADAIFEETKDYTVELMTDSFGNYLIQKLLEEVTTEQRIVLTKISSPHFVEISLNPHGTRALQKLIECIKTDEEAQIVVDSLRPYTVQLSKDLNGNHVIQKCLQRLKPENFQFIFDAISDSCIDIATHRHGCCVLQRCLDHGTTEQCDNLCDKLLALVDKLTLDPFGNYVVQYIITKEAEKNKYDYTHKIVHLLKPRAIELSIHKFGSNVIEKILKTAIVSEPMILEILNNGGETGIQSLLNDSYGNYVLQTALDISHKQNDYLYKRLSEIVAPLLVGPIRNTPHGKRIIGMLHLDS

Row | Binder | Kd [nM]
1 | UCUCUUUGUACAUAGUUCUCUU (ssRNA) [Ic_S1_P5E.1_K5.1_C5.1_H5.1_A5.1_[T5C]_[T6A]_[A7T]_F5.1_[T8A]_[T9G]_[A10T]_T5.1] | 4.18
2 | UCUCUUUGUAUCCCUAUCUCUU (ssRNA) [Ic_S1_P5E.1_K5.1_C5.1_H5.1_A5.1_[T6C]_[A7C]_F5.1_[T8C]_T5.1] | 13.3
3 | UCUCUUUGUAGCUGCCUCUCUU (ssRNA) [Ic_S1_P5E.1_K5.1_C5.1_H5.1_A5.1_[T5G]_[T6C]_[A7T]_F5.1_[T8G]_[T9C]_[A10C]_T5.1] | > 2300
4 | UCUCUUUGUAUCUCGAUCUCUU (ssRNA) [Ic_S1_P5E.1_K5.1_C5.1_H5.1_A5.1_[T6C]_[A7T]_F5.1_[T8C]_[T9G]_T5.1] | 463
5 | UCUCUUUGUACUCACGUCUCUU (ssRNA) [Ic_S1_P5E.1_K5.1_C5.1_H5.1_A5.1_[T5C]_[A7C]_F5.1_[T8A]_[T9C]_[A10G]_T5.1] | 1100
6 | UCUCUUUGUAACCGUAUCUCUU (ssRNA) [Ic_S1_P5E.1_K5.1_C5.1_H5.1_A5.1_[T5A]_[T6C]_[A7C]_F5.1_[T8G]_T5.1] | 52.9
7 | UCUCUUUGUAGCUGCUUCUCUU (ssRNA) [Ic_S1_P5E.1_K5.1_C5.1_H5.1_A5.1_[T5G]_[T6C]_[A7T]_F5.1_[T8G]_[T9C]_[A10T]_T5.1] | 2150
8 | UCUCUUUGUAGUUUAUUCUCUU (ssRNA) [Ic_S1_P5E.1_K5.1_C5.1_H5.1_A5.1_[T5G]_[A7T]_F5.1_[T9A]_[A10T]_T5.1] | 15.2
9 | UCUCUUUGUAUUCGUUUCUCUU (ssRNA) [Ic_S1_P5E.1_K5.1_C5.1_H5.1_A5.1_[A7C]_F5.1_[T8G]_[A10T]_T5.1] | 378
10 | UCUCUUUGCGUAUAUCUCUU (ssRNA) [Ib_S1_P3E.1_K3.1_C3.1_H3.1_[T3C]_[A4G]_A3.1_F3.1_T3.1] | > 2300
11 | UCUCUUUGUAUAUUCCUCUCUU (ssRNA) [Ic_S1_P5E.1_K5.1_C5.1_H5.1_A5.1_[T6A]_[A7T]_F5.1_[T9C]_[A10C]_T5.1] | 5.93
12 | UCUCUUUGUAACAUUCUCUCUU (ssRNA) [Ic_S1_P5E.1_K5.1_C5.1_H5.1_A5.1_[T5A]_[T6C]_F5.1_[A10C]_T5.1] | 15
13 | UCUCUUUGUAUUUUCUUCUCUU (ssRNA) [Ic_S1_P5E.1_K5.1_C5.1_H5.1_A5.1_[A7T]_F5.1_[T9C]_[A10T]_T5.1] | 34.8
14 | UCUCUUUGUAAUCAUCUCUCUU (ssRNA) [Ic_S1_P5E.1_K5.1_C5.1_H5.1_A5.1_[T5A]_[A7C]_F5.1_[T8A]_[A10C]_T5.1] | 482
15 | UCUCUUUGUAAUGGUUUCUCUU (ssRNA) [Ic_S1_P5E.1_K5.1_C5.1_H5.1_A5.1_[T5A]_[A7G]_F5.1_[T8G]_[A10T]_T5.1] | 1060
16 | UCUCUUUGUAUCUUAUUCUCUU (ssRNA) [Ic_S1_P5E.1_K5.1_C5.1_H5.1_A5.1_[T6C]_[A7T]_F5.1_[T9A]_[A10T]_T5.1] | 3.28

Row | Binder | Kd [nM]
17 | UCUCUUUGUAUUCCAAUCUCUU (ssRNA) [Ic_S1_P5E.1_K5.1_C5.1_H5.1_A5.1_[A7C]_F5.1_[T8C]_[T9A]_T5.1] | 526
18 | UCUCUUUGUAACCCGAUCUCUU (ssRNA) [Ic_S1_P5E.1_K5.1_C5.1_H5.1_A5.1_[T5A]_[T6C]_[A7C]_F5.1_[T8C]_[T9G]_T5.1] | 1950
19 | UCUCUUUGUAUCCCGCUCUCUU (ssRNA) [Ic_S1_P5E.1_K5.1_C5.1_H5.1_A5.1_[T6C]_[A7C]_F5.1_[T8C]_[T9G]_[A10C]_T5.1] | 1690
20 | UCUCUUUGUAUUGGUUUCUCUU (ssRNA) [Ic_S1_P5E.1_K5.1_C5.1_H5.1_A5.1_[A7G]_F5.1_[T8G]_[A10T]_T5.1] | 711
21 | UCUCUUUGUAUCGAUGUCUCUU (ssRNA) [Ic_S1_P5E.1_K5.1_C5.1_H5.1_A5.1_[T6C]_[A7G]_F5.1_[T8A]_[A10G]_T5.1] | 859
22 | UCUCUUUGUACCGUCCUCUCUU (ssRNA) [Ic_S1_P5E.1_K5.1_C5.1_H5.1_A5.1_[T5C]_[T6C]_[A7G]_F5.1_[T9C]_[A10C]_T5.1] | 1540
23 | UCUCUUUGUACCUUAGUCUCUU (ssRNA) [Ic_S1_P5E.1_K5.1_C5.1_H5.1_A5.1_[T5C]_[T6C]_[A7T]_F5.1_[T9A]_[A10G]_T5.1] | 2.41
24 | UCUCUUUGUAUGUACCUCUCUU (ssRNA) [Ic_S1_P5E.1_K5.1_C5.1_H5.1_A5.1_[T6G]_[A7T]_F5.1_[T8A]_[T9C]_[A10C]_T5.1] | 93.8
25 | UCUCUUUGUAUGUUUCUCUCUU (ssRNA) [Ic_S1_P5E.1_K5.1_C5.1_H5.1_A5.1_[T6G]_[A7T]_F5.1_[A10C]_T5.1] | 47
26 | UCUCUUUGUAUCAAUGUCUCUU (ssRNA) [Ic_S1_P5E.1_K5.1_C5.1_H5.1_A5.1_[T6C]_F5.1_[T8A]_[A10G]_T5.1] | 354
27 | UCUCUUUGUAUCGUUGUCUCUU (ssRNA) [Ic_S1_P5E.1_K5.1_C5.1_H5.1_A5.1_[T6C]_[A7G]_F5.1_[A10G]_T5.1] | 315
28 | UCUCUUCGUACAUAUCUCUU (ssRNA) [Ib_S1_P3E.1_K3.1_C3.1_H3.1_[T1C]_A3.1_[T5C]_F3.1_T3.1] | 1050
29 | UCUCUUUGUAUGCCAUUCUCUU (ssRNA) [Ic_S1_P5E.1_K5.1_C5.1_H5.1_A5.1_[T6G]_[A7C]_F5.1_[T8C]_[T9A]_[A10T]_T5.1] | 100
30 | UCUCUUUGUACCUGCUUCUCUU (ssRNA) [Ic_S1_P5E.1_K5.1_C5.1_H5.1_A5.1_[T5C]_[T6C]_[A7T]_F5.1_[T8G]_[T9C]_[A10T]_T5.1] | 378
31 | UCUCUUUGUACACGCGUCUCUU (ssRNA) [Ic_S1_P5E.1_K5.1_C5.1_H5.1_A5.1_[T5C]_[T6A]_[A7C]_F5.1_[T8G]_[T9C]_[A10G]_T5.1] | 709
32 | UCUCUUUGUAAAUAUCUCUCUU (ssRNA) [Ic_S1_P5E.1_K5.1_C5.1_H5.1_A5.1_[T5A]_[T6A]_[A7T]_F5.1_[T8A]_[A10C]_T5.1] | 27.1
